Results on 15 molecules are retold here after US20240116985A1 (published 2024).

For assay [1], the target named is T1, full-length beta-Catenin (Uniprot ID P35222) (Homo sapiens (Human), UniProt P35222 1-781).
T1 construct: The assay protocol says 'full-length beta-Catenin (Uniprot ID P35222)'; also called bCat; B-Catenin
T1 sequence: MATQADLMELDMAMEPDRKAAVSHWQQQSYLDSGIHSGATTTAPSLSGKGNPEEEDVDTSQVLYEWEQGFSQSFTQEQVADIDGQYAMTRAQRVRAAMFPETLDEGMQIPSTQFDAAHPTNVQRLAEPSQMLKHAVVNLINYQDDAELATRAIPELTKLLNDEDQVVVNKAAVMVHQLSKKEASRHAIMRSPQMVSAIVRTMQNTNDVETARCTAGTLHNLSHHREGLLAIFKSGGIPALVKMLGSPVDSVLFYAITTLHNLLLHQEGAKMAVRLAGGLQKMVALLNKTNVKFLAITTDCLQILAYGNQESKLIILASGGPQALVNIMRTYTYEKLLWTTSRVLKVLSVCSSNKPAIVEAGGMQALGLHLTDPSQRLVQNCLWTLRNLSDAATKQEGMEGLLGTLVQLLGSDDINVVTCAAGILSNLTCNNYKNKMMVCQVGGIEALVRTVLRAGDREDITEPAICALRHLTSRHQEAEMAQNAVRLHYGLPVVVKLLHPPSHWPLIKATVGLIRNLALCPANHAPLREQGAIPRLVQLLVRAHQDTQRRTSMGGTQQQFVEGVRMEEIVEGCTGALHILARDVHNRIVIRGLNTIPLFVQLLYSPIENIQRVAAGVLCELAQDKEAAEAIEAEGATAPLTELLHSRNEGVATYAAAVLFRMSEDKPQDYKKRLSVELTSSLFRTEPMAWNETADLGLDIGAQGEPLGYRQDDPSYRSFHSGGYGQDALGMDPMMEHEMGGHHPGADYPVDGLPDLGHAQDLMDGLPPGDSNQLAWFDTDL
The assay can be described thus: fluorescence polarization competition; full-length beta-catenin, competitor 5FAM-TCF4(10-53) probe. An outline of the steps: (§1)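 Plate incubated 60 minutes at 20° C. protected from light before reading. Concentrations given are final.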
On the technique in general: Fluorescence polarisation rises when a labelled molecule tumbles more slowly, as on binding a larger partner.

Assay [2] addresses T2, B-cat-Halo (beta-catenin HaloTag construct expressed in HEK293 cells) (UniProt P35222 1-781).
T2 sequence (looked up): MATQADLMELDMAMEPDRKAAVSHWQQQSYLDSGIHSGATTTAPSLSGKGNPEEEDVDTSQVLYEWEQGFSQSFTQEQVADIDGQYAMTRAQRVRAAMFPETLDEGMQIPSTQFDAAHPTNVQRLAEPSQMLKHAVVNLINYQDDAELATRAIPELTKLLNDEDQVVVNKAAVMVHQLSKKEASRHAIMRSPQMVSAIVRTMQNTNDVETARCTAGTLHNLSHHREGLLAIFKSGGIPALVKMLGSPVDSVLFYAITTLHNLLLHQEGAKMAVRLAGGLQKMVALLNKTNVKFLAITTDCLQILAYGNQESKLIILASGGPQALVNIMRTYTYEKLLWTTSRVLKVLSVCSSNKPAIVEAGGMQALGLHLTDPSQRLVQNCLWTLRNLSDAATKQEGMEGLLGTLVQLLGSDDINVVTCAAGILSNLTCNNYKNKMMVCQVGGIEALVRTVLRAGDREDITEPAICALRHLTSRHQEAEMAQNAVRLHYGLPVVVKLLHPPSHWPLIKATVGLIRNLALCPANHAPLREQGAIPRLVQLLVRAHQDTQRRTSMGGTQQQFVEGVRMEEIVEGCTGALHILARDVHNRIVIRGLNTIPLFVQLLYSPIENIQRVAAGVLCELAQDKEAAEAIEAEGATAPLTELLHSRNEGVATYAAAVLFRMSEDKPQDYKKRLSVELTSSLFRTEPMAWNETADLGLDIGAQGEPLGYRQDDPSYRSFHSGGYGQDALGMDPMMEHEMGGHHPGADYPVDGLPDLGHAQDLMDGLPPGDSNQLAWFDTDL
As to the kind of experiment: cell-based or functional assay.

In assay [3] the target is T3, full-length beta-Catenin (Uniprot ID P35222) (Homo sapiens (Human), UniProt P35222 2-781).
T3 construct: Also used here for the endogenous beta-catenin of the DLD1 TCF reporter cells; also called bCat; B-Catenin
T3 sequence: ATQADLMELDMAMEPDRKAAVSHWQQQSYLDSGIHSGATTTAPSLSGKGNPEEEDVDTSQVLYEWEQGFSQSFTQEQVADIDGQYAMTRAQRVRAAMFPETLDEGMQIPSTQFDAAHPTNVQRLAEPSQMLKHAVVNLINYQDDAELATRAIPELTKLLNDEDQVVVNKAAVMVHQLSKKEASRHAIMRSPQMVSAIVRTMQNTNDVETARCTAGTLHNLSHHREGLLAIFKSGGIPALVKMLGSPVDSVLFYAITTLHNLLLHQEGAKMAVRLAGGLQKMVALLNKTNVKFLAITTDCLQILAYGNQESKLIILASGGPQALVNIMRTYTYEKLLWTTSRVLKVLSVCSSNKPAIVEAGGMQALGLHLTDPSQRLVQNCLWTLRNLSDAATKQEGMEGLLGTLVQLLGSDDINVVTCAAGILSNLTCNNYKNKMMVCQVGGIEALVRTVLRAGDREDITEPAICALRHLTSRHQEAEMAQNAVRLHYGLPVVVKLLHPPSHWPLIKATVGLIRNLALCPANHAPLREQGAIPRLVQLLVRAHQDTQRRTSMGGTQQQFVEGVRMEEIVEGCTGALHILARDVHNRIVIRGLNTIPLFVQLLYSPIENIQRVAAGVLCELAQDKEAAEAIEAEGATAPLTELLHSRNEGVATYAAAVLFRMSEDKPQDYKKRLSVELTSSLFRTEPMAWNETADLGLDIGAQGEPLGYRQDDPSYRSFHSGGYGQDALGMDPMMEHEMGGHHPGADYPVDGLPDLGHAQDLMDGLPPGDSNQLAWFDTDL
The assay can be described thus: fluorescence polarization competition; full-length beta-catenin, competitor 5FAM-TCF4(10-53) probe. An outline of the steps:
as §1

Starred links: 1 amine or outer side, 2 acyl side, 3 side chain; linkers in the order of their positions; H or OH if unused. Positions of bridges follow the written chain, without caps; N, C: chain ends. Non-standard residues stand in square brackets, D forms with d. Primed or numbered codes have the meaning given here. B5(11) = 2,2-bis(4-pentenyl)glycine = 2-amino-2-(pent-4-en-1-yl)hept-6-enoic acid (stitching residue, bears both staples), C=CCCCC(CCCC=C)(N[*:1])C(=O)[*:2]; PyrS2(3) = (S)-3-amino-1-((pent-4-en-1-yloxy)carbonyl)pyrrolidine-3-carboxylic acid, stapling residue, C=CCCCOC(=O)N1CC[C@@](N[*:1])(C(=O)[*:2])C1; B5(18) = 2,2-bis(4-pentenyl)glycine (2-amino-2-(pent-4-en-1-yl)hept-6-enoic acid), stitching residue, C=CCCCC(CCCC=C)(N[*:1])C(=O)[*:2]; B5(4) = 2,2-bis(4-pentenyl)glycine = 2-amino-2-(pent-4-en-1-yl)hept-6-enoic acid (stitching residue), C=CCCCC(CCCC=C)(N[*:1])C(=O)[*:2]; B5(5) = 2,2-bis(4-pentenyl)glycine, 2-amino-2-(pent-4-en-1-yl)hept-6-enoic acid (stitching residue), C=CCCCC(CCCC=C)(N[*:1])C(=O)[*:2]; TfeGA = (S)-2-amino-3-((carboxymethyl)(2,2,2-trifluoroethyl)amino)propanoic acid, O=C([C@H](CN(CC(=O)[*:3])CC(F)(F)F)N[*:1])[*:2]; RdN = (R)-4-(((allyloxy)carbonyl)(methyl)amino)-2-amino-2-methylbutanoic acid, C=CCOC(=O)N(C)CC[C@@](C)(N[*:1])C(=O)[*:2]; TriAzDap = Dap whose side chain is a 1H-1,2,3-triazol-1-yl bearing the bracketed 4-substituent; Phe(3-COOH) = N[C@@H](Cc1cccc(C(=O)O)c1)C(=O)O; S7 = C[C@@](CCCCCC=[*:3])(N[*:1])C(=O)[*:2]; Phe(2-Cl) = N[C@@H](Cc1ccccc1Cl)C(=O)O; Bta = N[C@@H](Cc1csc2ccccc12)C(=O)O; αAllylPro = C=CC[C@@]1(C(=O)O)CCCN1; NMeH = CN[C@@H](Cc1c[nH]cn1)C(=O)O; tBuAla = CC(C)(C)C[C@H](N)C(=O)O; 3Thi = N[C@@H](Cc1ccsc1)C(=O)O; S8 = C=CCCCCCC[C@](C)(N)C(=O)O; Aib = CC(C)(N)C(=O)O

B1: I-147 (peptide)
peptide: Ac-[Aib]DI[RdN]DEAAFQ[S7]FW-NH2
modifications: staple 4-11
notes: also called Ac-Aib-Asp-Ile-RdN-Asp-Glu-Ala-Ala-Phe-Gln-S7-Phe-Trp-NH2
Regarding B1, the IC50 in assay [1] turned out to be 1640 nM.
Turning to Ac-[αAllylPro]D[tBuAla][B5(18)]D[Phe(3-COOH)]AAFL[PyrS2(3)][Phe(2-Cl)][Bta]-NH2 (staple 1-4, 4-11) [I-1852], the “NanoBRET Abs IC50” value in assay [2] was found to be 4900 nM.

B2: I-144 (peptide)
peptide: Ac-[αAllylPro]DA[B5(4)]DEAAFV[S8]F[Bta]Q-NH2
modifications: staple 1-4, 4-11
notes: also called Ac-PL3-Asp-Ala-B5-Asp-Glu-Ala-Ala-Phe-Val-S8-Phe-BztA-Gln-NH2
On to B2, for which the IC50 in assay [1] is 146 nM.
Turning to Ac-[αAllylPro]N[tBuAla][B5(18)]D[Phe(3-COOH)]AAFL[PyrS2(3)][Phe(2-Cl)][Bta]S-NH2 (staple 1-4, 4-11) [I-1853], the “NanoBRET Abs IC50” value in assay [2] stood at 16300 nM.

B3: I-174 (peptide)
peptide: Ac-[αAllylPro]DI[B5(5)]DDAAFQ[S8]FWH-NH2
modifications: staple 1-4, 4-11
notes: also called Ac-PL3-Asp-Ile-B5-Asp-Asp-Ala-Ala-Phe-Gln-S8-Phe-Trp-His-NH2
In assay [1], B3 showed an IC50 of 1760 nM.
On to Ac-[αAllylPro]DL[B5(4)]DEAAFN[S8]F[Bta]S-NH2 (staple 1-4, 4-11; also: olefin E/Z not assigned, earlier-eluting staple isomer, Stapled peptide composition) [I-750], for which the 50% effective concentration (EC50) in assay [3] came to 43 nM.
The same measure, in the same setting: the result for Ac-[αAllylPro]DL[B5(4)]DEAAFN[S8]F[Bta][dN]-NH2 (staple 1-4, 4-11; also: later-eluting HPLC peak (staple isomer), Stapled peptide composition) [I-758] reads 47 nM; that for Ac-[αAllylPro]DL[B5(4)]DEAAFN[S8]F[Bta][dT]-NH2 (staple 1-4, 4-11; also: earlier-eluting HPLC peak (staple isomer), Stapled peptide composition) [I-754], 115 nM.
With Ac-[αAllylPro]DL[B5(4)]DEAAFN[S8]F[Bta][dT]-NH2 (staple 1-4, 4-11; also: later-eluting HPLC peak (staple isomer), Stapled peptide composition) [I-755], the EC50 in assay [3] is 88 nM.
The same measure, in the same setting: for Ac-[αAllylPro]DL[B5(4)]DEAAFN[S8]F[Bta][dN]-NH2 (staple 1-4, 4-11; also: earlier-eluting HPLC peak (staple isomer), Stapled peptide composition) [I-757] the value was 64 nM.

B4: I-748 (peptide)
peptide: XDLXDEAAFNXFXT
modifications: not fully specified; as printed: Ac-PL3-Asp-Leu-B5-Asp-Glu-Ala-Ala-Phe-Asn-S8-Phe-BztA-Thr-NH2; N-terminal Ac, C-terminal NH2; stapled by olefin metathesis PL3(1)-B5(4) and B5(4)-S8(11)
notes: Stapled peptide composition
Turning to B4, the EC50 in assay [3] stood at 54 nM.

B5: I-749 (peptide)
peptide: XDLXDEAAFNXFXT
modifications: not fully specified; as printed: Ac-PL3-Asp-Leu-B5-Asp-Glu-Ala-Ala-Phe-Asn-S8-Phe-BztA-Thr-NH2; N-terminal Ac, C-terminal NH2; stapled by olefin metathesis PL3(1)-B5(4) and B5(4)-S8(11)
notes: Stapled peptide composition
In turn, B5 came in with an EC50 in assay [3] of 40 nM.
On the same count and under the same terms, the result for Ac-[αAllylPro]DL[B5(11)]DEAAFN[S8]F[Bta][NMeH]-NH2 (staple 1-4, 4-11; not fully specified, Stapled peptide composition) [I-747] reads 2390 nM.
For the molecule Ac-[αAllylPro]D[tBuAla][B5(18)]D[TfeGA]AAF[TriAzDap](CH2NMe2)[PyrS2(3)][3Thi][Bta]Q-NH2 (staple 1-4, 4-11; not fully specified) [I-1862], in assay [2], the “NanoBRET Abs IC50” value was 19300 nM.

B6: I-154 (peptide)
peptide: ADIXDEAAFAXFWA
modifications: not fully specified; N-terminal acetyl (Ac); RdN at 4 and S7 at 11 (staple RdN-S7 by olefin metathesis); C-terminal amide (NH2)
notes: also called Ac-Ala-Asp-Ile-RdN-Asp-Glu-Ala-Ala-Phe-Ala-S7-Phe-Trp-Ala-NH2
In assay [1], B6 came in with an IC50 of 5000 nM.

In general, IC50 refers to the concentration at which inhibition is half-maximal. A lower IC50 goes with greater potency. The EC50 is the concentration at which the effect is half-maximal. Low values mean higher potency in that assay, high ones lower potency in that assay.
